Measurements reported in US10487337B2, “Methods for monocot plant improvement” (Agresearch Limited, priority 2014, dated 2019).

Tests used:
[1] = tested on: Arabidopsis Δppd mutant; experiment: Complementation of the Arabidopsis Δppd mutant leaf phenotype; type: in vivo; details: CaMV35s promoter, Arabidopsis thaliana ecotype Landsberg erecta, FIG. 13
Source text: The functionality of any PEAPOD sequence can be confirmed by complementation of the Arabidopsis Δppd mutant leaf phenotype. Complementation of the Arabidopsis Δppd mutant leaf phenotype was first used to identify the Arabidopsis PPD gene (White 2006). This was seen by a restoration of the wild type flattened leaf phenotype and normal rosette shape as opposed to the domed leaf and the twisting of the rosette to a “propeller” phenotype.
Arabidopsis thaliana (L.) Heynh ecotype Ler can be used as wild-type (WT). The Δppd loss of function deletion mutant (with PPD1 and PPD2 deleted) is as previously described in White 2006, PNAS 103, 13238-13243.
Plants are grown in a temperature-controlled glasshouse at a continuous 21° C. or in a controlled environment cabinet at 23° C. in 16-h light_8-h dark cycles.
Constructs above can be transformed into Arabidopsis by the floral dip infiltration method (Clough and Bent, 1998, Plant J 16, 735-43). The Δppd line is transformed to express the PPD polypeptides by standard techniques. Transgenic plants are confirmed by standard PCR analysis techniques with a combination of transgene-specific and T-DNA primers.
Complementation of the Δppd line to produce a wild-type leaf and rosette phenotype in T1 seedlings (the off-spring of the infiltrated plant) confirms PEAPOD functionality of the introduced gene, which can be shown in photographs.

[2] = molecular target: T1, DELLA (RGA1) (Arabidopsis thaliana, UniProt Q9SLH3); experiment: Yeast two-hybrid (Y2H) analysis between PPD and DELLA (RGA1); type: binding; details: PPD1-DBD as bait, 15 mM 3AT
T1 construct: expressed in transfected cells; host or cells: yeast strain MaV203
T1 sequence (Q9SLH3 with tags, fused parts or gaps): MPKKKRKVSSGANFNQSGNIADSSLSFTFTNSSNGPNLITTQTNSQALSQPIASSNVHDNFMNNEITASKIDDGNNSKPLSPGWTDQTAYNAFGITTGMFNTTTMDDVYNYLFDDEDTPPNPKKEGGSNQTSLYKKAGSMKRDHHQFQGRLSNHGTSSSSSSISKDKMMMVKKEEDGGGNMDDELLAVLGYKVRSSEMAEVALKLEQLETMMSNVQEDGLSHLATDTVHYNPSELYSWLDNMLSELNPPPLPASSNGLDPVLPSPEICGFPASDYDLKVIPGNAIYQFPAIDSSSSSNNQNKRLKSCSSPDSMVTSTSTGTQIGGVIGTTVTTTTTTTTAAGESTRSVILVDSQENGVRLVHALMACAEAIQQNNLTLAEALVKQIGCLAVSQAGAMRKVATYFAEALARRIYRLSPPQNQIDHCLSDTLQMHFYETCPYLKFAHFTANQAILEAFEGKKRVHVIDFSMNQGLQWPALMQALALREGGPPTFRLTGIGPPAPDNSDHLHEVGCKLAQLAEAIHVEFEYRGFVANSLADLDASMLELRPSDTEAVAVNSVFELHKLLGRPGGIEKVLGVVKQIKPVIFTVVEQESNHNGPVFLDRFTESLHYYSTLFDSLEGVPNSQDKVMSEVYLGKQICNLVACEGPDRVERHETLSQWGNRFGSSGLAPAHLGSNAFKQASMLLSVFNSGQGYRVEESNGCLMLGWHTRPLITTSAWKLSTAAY
Source text: The ProQuest two-hybrid system (Invitrogen) was used to analyse interactions between PPD1, and RGA1. Full length coding sequences of PPD1, together with truncation or deletion derivatives of PPD1 (PPD1Δppd, PPD1Δtify, and PPD1Δjas*) (FIG. 5), were Gateway sub-cloned into pDEST32 (N-terminal GAL4DBD) or pDEST22 (N-terminal GAL4AD). When translated these generated the following peptide sequences: 55, 65, 66, 67, 68, 7169, which are PPD1-DBD, RGA1, RGA1-AD, PPD1-ppd-DBD, PPD1-tify-DBD, PP1-jas*-DBD respectively.
Combinations of bait and prey constructs were used to co-transform yeast strain MaV203 (Invitrogen), with selection on synthetic dropout (SD) SD/-Leu/-Trp agar plates. Transformed strains were tested for interactions using 10 μl droplets of 1 in 10 and 1 in 100 dilutions on SD/-Leu/-Trp/-His plates with different concentrations of 3-aminotriazol (3-AT) (Sigma). The PPD1-RGA1 interaction was tested with PPD1-DBD used as bait. Transformed yeast was spotted as a ten-fold dilution on control medium (−2) or selective medium (−3) with 15 mM 3AT. Controls were empty vectors, DBD, GAL4 DNA binding domain, AD, GAL4 activation domain (FIG. 5).

B1: PPD1: PEAPOD 1 protein of Arabidopsis thaliana, SEQ ID NO: 1 (protein, listed as Arabidopsis thaliana)
chain: MDVGVSPAKSILAKPLKLLTEEDISQLTREDCRKFLKDKGMRRPSWNKSQAIQQVLSLKALYEPGDDSGAGIFRKILVSQPVNPPRVTTTLIEPSNELEACGRVSYPEDNGACHRMDSPRSAEFSGGSGHFVSEKDGHKTTISPRSPAETSELVGQMTIFYSGKVNVYDGIPPEKARSIMHFAANPIDLPENGIFASSRMISKLISKEKMMELPQKGLEKANSSRDSGMEGQANRKVSLQRYREKRKDRKFSKAKKCPGVASSSLEMFLNCQPRMKAAYSQNLGCTGSPLHSQSPESQTKSPNLSVDLNSEGI
PEAPOD functionality by complementation of the Δppd deletion mutant [1]: functionally equivalent | interaction with DELLA (RGA1) [2]: can directly bind to DELLA
